From PMC5373594

System: T1, His6-WblI (Streptomyces lividans TK24), ORF:202723bd
T1 sequence: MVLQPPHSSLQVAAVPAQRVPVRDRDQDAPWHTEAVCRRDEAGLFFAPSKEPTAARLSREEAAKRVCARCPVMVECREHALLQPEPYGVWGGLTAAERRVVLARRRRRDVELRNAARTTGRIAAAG
Experiment: EMSA
Settings: 10 mM Tris-HCl pH 7.5, 50 mM KCl, 1 mM DTT, 20 µl, room temperature 15 min, 50 pmol probe, 5% native PAGE in 45 mM Tris-HCl pH 8.3, 45 mM boric acid

AGCCAGTGGCGATAAGGTTCCGTCCGGTCCGGGGCCGTCCTCGGGCAGTAACGCCGACGGCGGGGCCGTGGCCCTGTCCGGCTCGTCGGCTTCAACGGAACTCATGGCGTCCCCCGGGTCCTCGACTATTGGTCCACGAACGACCACCGTTCTACAATGGAACGGTGGTCGCGTCAAGAAACGGTGGCCCGTTCATGCCATACGATGAGGAGCACGTGTCGCTTATCGCCACTGGCT (double strand) [actII-1/actII-2 intergenic region]
binding: binds
